Assay results from PMC4365169 (Nature Communications, 2014).

Target: actin filaments (F-actin, rabbit skeletal muscle) (rabbit, UniProt P68135 1-377)
Experiment: co-sedimentation

- Kd: ~5 µM
B1: GFP–TipAct (other)
chain: DERDRVQKKTFTKWVNKHLMKVRKHINDLYEDLRDGHNLISLLEVLSGIKLPREKGRMRFHRLQNVQIALDFLKQRQVKLVNIRNDDITDGNPKLTLGLIWTIILHFQISDIYISGESGDMSAKEKLLLWTQKVTAGYTGIKCTNFSSCWSDGKMFNALIHRYRPDLVDMERVQIQSNRENLEQAFEVAERLGVTRLLDAEDVDVPSPDEKSVITYVSSIYDAFPKVPEGGEGEMANRLAGLENSLESEKVSREQLIKQKDQLNSLLASLESEGAEREKRLRELEAKLDETLKNLELEKLARMELEARLAKTEKDRAILELKLAEAIDEKSKLEESSAAGGQGNSRRGLNKPSKIPTMSKKTTTASPRTPGPKR
